Measurements: patent publication US20180230232A1 (VIB VZW, published 2018)

B1: NANOBODY B9 (Nb_B9) (VHH)
VHH: DVQLQESGGGSVQAGGSLRLSCAASEYTYGYCSMGWYRQAPGKERELVSTITSDGSTSYVDSVKGRFTISQDNAKNTVYLQMNSLKPEDTAKYYCYTKTCANKLGAKFISWGQGTQVTVSS
notes: dromedary VHH; his-tagged from E. coli; HA-tagged periplasmic extract in the ELISA screen; also called VHH B9; not shown: C-terminal his6-tag (pHEN6)
B2: NANOBODY 4A2 (Nb_4A2) (VHH)
VHH: QVQLQESGGGLVQPGGSLRLSCAASGFTFETQYMTWVRQAPGKGPEYVSSINSGGTIKYYANSSVKGRFTISRDNAKNTLYLQMNNLRPEDTAIYYCQLGQWAGVGAASSRGQGTQVTVSS
notes: from the llama library; purified from pHEN6; not shown: C-terminal his6-tag (pHEN6)
B3: NANOBODY 10C4 (Nb_10C4) (VHH)
VHH: QVQLQESGGGSVQAGGFLRLSCAASGYTYSTCSMAWYRQAPGKERELVSSIRNDGSTAYADSVKGRFTISQDNAKNTVYLQMNSLKPEDTAMYYCNIRIGVGPGGTCSIYAPYWGEGTQVTVSS
notes: from the dromedary libraries; purified from pHEN6; not shown: C-terminal his6-tag (pHEN6)

Experiments:
[1] = target: BACE1 of primary cultured mouse neurons (mouse, UniProt P56818 46-501); assay: cell-based or functional assay
[2] = target: recombinant BACE1 of the cell-free enzymatic assays (FRET assay, MBP-ELISA) (human, UniProt P56817 46-460, limits assumed); assay: cell-based or functional assay
[3] = target: T1, human BACE1 ectodomain (human, UniProt P56817 22-457); assay: SPR (Biacore), pH 4.5
T1 construct: extracellular domain; also called the ectodomain of human BACE1

[4] = target: T1, human BACE1 ectodomain; assay: SPR (Biacore), pH 7.0
[5] = target: T2, mouse BACE1 (mouse, UniProt P56818 46-457, limits assumed); assay: SPR (Biacore), pH 4.5
[6] = target: T2, mouse BACE1; assay: SPR (Biacore), pH 7.0

T1 sequence (P56817 22-457): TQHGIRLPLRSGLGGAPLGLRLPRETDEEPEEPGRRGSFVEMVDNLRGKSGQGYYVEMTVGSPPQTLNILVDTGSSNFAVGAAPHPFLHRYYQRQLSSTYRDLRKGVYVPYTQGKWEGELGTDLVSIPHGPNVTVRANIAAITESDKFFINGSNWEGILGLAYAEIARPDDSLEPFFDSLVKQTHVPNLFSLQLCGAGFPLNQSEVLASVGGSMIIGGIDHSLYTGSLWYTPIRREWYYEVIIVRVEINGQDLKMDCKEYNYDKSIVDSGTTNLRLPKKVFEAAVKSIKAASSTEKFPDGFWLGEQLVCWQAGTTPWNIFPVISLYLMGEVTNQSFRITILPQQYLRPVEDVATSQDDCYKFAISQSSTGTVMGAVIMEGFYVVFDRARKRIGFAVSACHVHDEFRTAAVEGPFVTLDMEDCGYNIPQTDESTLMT
Chain of recombinant BACE1 of the cell-free enzymatic assays (FRET assay, MBP-ELISA) (P56817 46-460 limits assumed): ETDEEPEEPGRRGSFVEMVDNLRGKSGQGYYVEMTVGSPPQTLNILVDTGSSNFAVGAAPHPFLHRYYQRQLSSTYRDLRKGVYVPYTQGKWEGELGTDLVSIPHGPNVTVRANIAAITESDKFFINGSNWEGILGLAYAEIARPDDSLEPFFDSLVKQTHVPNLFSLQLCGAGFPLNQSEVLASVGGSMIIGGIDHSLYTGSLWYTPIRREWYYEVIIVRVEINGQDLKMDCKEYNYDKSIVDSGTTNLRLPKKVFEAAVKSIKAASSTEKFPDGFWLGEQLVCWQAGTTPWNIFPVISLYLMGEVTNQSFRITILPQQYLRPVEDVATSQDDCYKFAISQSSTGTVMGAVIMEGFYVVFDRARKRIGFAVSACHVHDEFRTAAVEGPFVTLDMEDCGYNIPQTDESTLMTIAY
T2 sequence (P56818 46-457 limits assumed): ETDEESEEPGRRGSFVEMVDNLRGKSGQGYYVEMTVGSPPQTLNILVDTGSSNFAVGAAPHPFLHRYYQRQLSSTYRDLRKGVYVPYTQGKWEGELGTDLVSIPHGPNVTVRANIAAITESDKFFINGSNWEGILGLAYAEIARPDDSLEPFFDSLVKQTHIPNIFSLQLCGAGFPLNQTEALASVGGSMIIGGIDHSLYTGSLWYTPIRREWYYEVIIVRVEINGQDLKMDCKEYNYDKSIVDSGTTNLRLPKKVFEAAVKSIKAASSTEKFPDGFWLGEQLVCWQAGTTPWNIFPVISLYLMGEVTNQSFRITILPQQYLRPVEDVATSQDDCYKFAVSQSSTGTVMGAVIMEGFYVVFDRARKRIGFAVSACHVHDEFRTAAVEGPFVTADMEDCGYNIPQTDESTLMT
Chain of BACE1 of primary cultured mouse neurons (P56818 46-501): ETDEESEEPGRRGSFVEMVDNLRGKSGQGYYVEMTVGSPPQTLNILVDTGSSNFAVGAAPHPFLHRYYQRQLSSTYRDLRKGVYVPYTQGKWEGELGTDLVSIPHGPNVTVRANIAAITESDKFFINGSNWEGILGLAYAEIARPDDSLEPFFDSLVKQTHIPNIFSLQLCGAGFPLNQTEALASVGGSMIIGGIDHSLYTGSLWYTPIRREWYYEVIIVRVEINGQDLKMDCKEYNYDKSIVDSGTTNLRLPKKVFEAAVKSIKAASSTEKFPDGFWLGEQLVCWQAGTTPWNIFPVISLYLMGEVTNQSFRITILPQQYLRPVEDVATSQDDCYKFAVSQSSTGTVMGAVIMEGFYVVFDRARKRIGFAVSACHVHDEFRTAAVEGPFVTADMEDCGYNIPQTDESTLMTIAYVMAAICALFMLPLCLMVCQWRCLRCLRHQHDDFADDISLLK

| Binder | IC50 (CTFβ level) in the neuron assay [1] | EC50, FRET assay dose-response [2] | Kd [3] | koff [3] | kon [3] | Kd [4] | koff [4] | kon [4] | Kd [5] | koff [5] | kon [5] | Kd [6] | koff [6] | kon [6] | IC50, FRET assay dose-response [2] |
| --- | --- | --- | --- | --- | --- | --- | --- | --- | --- | --- | --- | --- | --- | --- | --- |
| B1 | ~500 nM | 4.1 nM | 1.96 nM | 0.0013 s⁻¹ | 662000 M⁻¹ s⁻¹ | 3.67 nM | 0.00098 s⁻¹ | 267000 M⁻¹ s⁻¹ | 1.11 nM | 0.00118 s⁻¹ | 1.06e+06 M⁻¹ s⁻¹ | 1.77 nM | 0.00089 s⁻¹ | 502000 M⁻¹ s⁻¹ |  |
| B2 |  |  | 21.2 nM | 0.00841 s⁻¹ | 397000 M⁻¹ s⁻¹ | 48.2 nM | 0.0231 s⁻¹ | 479000 M⁻¹ s⁻¹ | 8.61 nM | 0.00216 s⁻¹ | 251000 M⁻¹ s⁻¹ | 35.2 nM | 0.00581 s⁻¹ | 165000 M⁻¹ s⁻¹ | 1.2 µM |
| B3 |  |  | 27.7 nM | 0.0125 s⁻¹ | 451000 M⁻¹ s⁻¹ | 74.7 nM | 0.00792 s⁻¹ | 106000 M⁻¹ s⁻¹ | 10 nM | 0.00988 s⁻¹ | 984000 M⁻¹ s⁻¹ | 41.9 nM | 0.00797 s⁻¹ | 190000 M⁻¹ s⁻¹ | 0.15 µM |
